Source: paper PMC9280689, “Resistance to Powdery Mildew in Qingke Involves the Accumulation of Aromatic Phenolamides Through Jasmonate-Mediated Activation of Defense-Related Genes” (Frontiers in Plant Science, 2022)

Key:
Experiment in all cases: purified protein
purified protein [1] = substrate: CC(C)(COP(=O)(O)OP(=O)(O)OC[C@H]1O[C@@H](n2cnc3c(N)ncnc32)[C@H](O)[C@@H]1OP(=O)(O)O)[C@@H](O)C(=O)NCCC(=O)NCCSC(=O)/C=C/c1ccc(O)c(O)c1; details: acyl donor, amine acceptor 100 μM (which amine not told), 10 mM MgCl2, Tris-HCl pH 7.4, 30 °C
purified protein [2] = substrate: CC(C)(COP(=O)(O)OP(=O)(O)OC[C@H]1O[C@@H](n2cnc3c(N)ncnc32)[C@H](O)[C@@H]1OP(=O)(O)O)[C@@H](O)C(=O)NCCC(=O)NCCSC(=O)/C=C/c1ccc(O)cc1; details: acyl donor, amine acceptor 100 μM (which amine not told), 10 mM MgCl2, Tris-HCl pH 7.4, 30 °C
purified protein [3] = substrate: COc1cc(/C=C/C(=O)SCCNC(=O)CCNC(=O)[C@H](O)C(C)(C)COP(=O)(O)OP(=O)(O)OC[C@H]2O[C@@H](n3cnc4c(N)ncnc43)[C@H](O)[C@@H]2OP(=O)(O)O)ccc1O; details: acyl donor, amine acceptor 100 μM (which amine not told), 10 mM MgCl2, Tris-HCl pH 7.4, 30 °C
purified protein [4] = substrate: NCCCCN; details: acyl acceptor, feruloyl-CoA 50 μM as donor, 10 mM MgCl2, Tris-HCl pH 7.4, 30 °C

B1: HvACT (Hordeum vulgare) (protein)
chain: MKITVHSSKAVKPEYGACGLAPGCTADVVPLTVLDKANFDTYISVIYAFHAPAPPNAVLEAGLGRALVDYREWAGRLGVDASGGRAILLNDAGARFVEATADVALDSVMPLKPTSEVLSLHPSGDDGPEELMLIQVTRFACGSLVVGFTTQHIVSDGRSTGNFFVAWSQATRGAAIDPVPVHDRASFFHPREPLHVEYEHRGVEFKPCEKAHDVVCGADGDEDEVVVNKVHFSREFISKLKAHASAGAPRPCSTLQCVVAHLWRSMTMARGLDGGETTSVAIAVDGRARMSPQVPDGYTGNVILWARPTTTAGELVTRPVKHAVELISREVARINDGYFKSFIDFANSGAVEKERLVATADAADMVLSPNIEVDSWLRIPFYDMDFGGGRPFFFMPSYLPVEGLLILLPSFLGDGSVDAYVPLFSRDMNTFKNCCYSLD
**Q.** For B1, which Km (purified protein [1]) is on record?
**A.** 483.5 ± 63.2 µM

**Q.** And the kcat (purified protein [1])?
**A.** 0.175 s⁻¹

**Q.** What about the Km (purified protein [2]) of the same protein?
**A.** 104.9 ± 26.3 µM

**Q.** And the kcat (purified protein [2])?
**A.** 1.04 s⁻¹

**Q.** What about the kcat/Km (purified protein [2]) of the same protein?
**A.** 10000 M⁻¹ s⁻¹

**Q.** And the Km (purified protein [3])?
**A.** 161.3 ± 36.5 µM

**Q.** What about the kcat (purified protein [3]) of the same protein?
**A.** 0.736 s⁻¹

**Q.** And the kcat/Km (purified protein [3])?
**A.** 5000 M⁻¹ s⁻¹

**Q.** And the Km (purified protein [4])?
**A.** 7.11 ± 2.14 µM

**Q.** What about the kcat (purified protein [4]) of the same protein?
**A.** 2.51 s⁻¹

**Q.** And the kcat/Km (purified protein [4])?
**A.** 353000 M⁻¹ s⁻¹
